Experiments:
Assay in all cases: cell-based or functional assay
[1] = target: HIV-1 94UG103 envelope (Env) on pseudovirus (HIV-1)
[2] = target: HIV-1 Env of isolate 92UG024 (clade D pseudovirus) (HIV-1)
[3] = target: HIV-1 Env of isolate 94KE105 (listed under clade A; pseudovirus) (HIV-1)
[4] = target: HIV-1 Env of isolate 94UG103 (clade A pseudovirus) (HIV-1)
[5] = target: HIV-1 Env of isolate MGRM-AE-003 (pseudovirus) (HIV-1)
[6] = target: HIV-1 Env of isolate MGRM-D-005 (clade D pseudovirus) (HIV-1)
[7] = target: HIV-1 Env of isolate MGRM-D-008 (clade D pseudovirus) (HIV-1)
[8] = target: HIV-1 Env of isolate MGRM-G-009 (subtype G) (HIV-1)
[9] = target: HIV-1 Env of isolate TRJ0.58 (Acute), clade B (HIV-1)
[10] = target: HIV-1 Env of isolate TRO.11 (Acute), clade B (HIV-1)
[11] = target: HIV-1 Env of pseudovirus MGRM-G-014 (HIV-1)
[12] = target: HIV-1 IAVI-C22 envelope (Env) on pseudovirus (HIV-1)
[13] = target: HIV-1 MGRM-AE-005 Env (pseudovirus) (HIV-1)
[14] = target: HIV-1 MGRM-G-001 Env (pseudovirus) (HIV-1)
[15] = target: HIV-1 envelope glycoprotein (Env) of isolate MGRM-C-015 (HIV-1)
[16] = target: HIV-1 92UG005 envelope protein (Env) on pseudovirus (HIV-1)
[17] = target: HIV-1 envelope glycoprotein (Env) of isolate CMU02, subtype AE (HIV-1)
[18] = target: HIV-1 envelope glycoprotein (Env) of isolate MG RM-A-003, subtype A (HIV-1)
[19] = target: HIV-1 envelope glycoprotein (Env) of isolate MG RM-A-009, subtype A (HIV-1)
[20] = target: aMLV envelope protein on pseudovirus (negative control)
[21] = target: HIV-1 JR-CSF Env N396A (HIV-1 (isolate JR-CSF)) (UniProt P20871)
[22] = target: HIV-1 JR-CSF Env S334A (HIV-1 isolate JR-CSF) (UniProt P20871)
[23] = target: HIV-1 MGRM-AG-005 envelope protein (Env) on pseudovirus (HIV-1)
[24] = target: HIV-1 Env of isolate 92UG114 (HIV-1)
[25] = target: HIV-1 Env of isolate MGRM-C-022 (subtype C), on pseudovirus (HIV-1)
[26] = target: HIV-1 Env of isolate MGRM-D-001 (HIV-1)
[27] = target: HIV-1 Env of isolate MGRM-D-004 (HIV-1)
[28] = target: HIV-1 Env of pseudovirus isolate MGRM-Chronic-B-004 (clade B) (HIV-1)
[29] = target: HIV-1 Env of isolate 92UG046 (pseudovirus) (HIV-1)
[30] = target: HIV-1 Env of isolate MGRM-A-001 (pseudovirus) (HIV-1)
[31] = target: HIV-1 Env of isolate MGRM-A-012 (subtype A) (HIV-1)
[32] = target: HIV-1 Env of isolate MGRM-AE-006 (subtype AE) (HIV-1)
[33] = target: HIV-1 Env of isolate MGRM-C-001 (HIV-1)
[34] = target: HIV-1 Env of isolate MGRM-Chronic-B-001 (HIV-1)
[35] = target: HIV-1 Env of isolate MGRM-D-004 (pseudovirus) (HIV-1)
[36] = target: HIV-1 Env of isolate MGRM-D-011 (pseudovirus) (HIV-1)
[37] = target: HIV-1 Env of isolate MGRM-F1-008 (HIV-1)
[38] = target: HIV-1 Env of isolate MGRM-F1-010 (HIV-1)
[39] = target: HIV-1 Env of isolate MGRM-F1-017 (HIV-1)
[40] = target: HIV-1 JR-CSF Env N301A (HIV-1 (isolate JR-CSF, clade B)) (UniProt P20871)

Sequence of 4995_P16 (PGT-145) (antibody) (VH): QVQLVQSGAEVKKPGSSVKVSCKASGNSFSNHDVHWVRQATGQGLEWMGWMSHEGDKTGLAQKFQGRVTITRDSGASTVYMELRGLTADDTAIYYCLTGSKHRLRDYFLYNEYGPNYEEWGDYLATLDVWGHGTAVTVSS
Sequence of 4995_P16 (PGT-145) (antibody) (VL): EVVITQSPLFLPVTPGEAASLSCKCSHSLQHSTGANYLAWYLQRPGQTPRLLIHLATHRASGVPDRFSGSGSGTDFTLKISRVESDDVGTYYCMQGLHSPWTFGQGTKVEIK
Sequence of 4980_N08 (PGT-143) (antibody) (VH): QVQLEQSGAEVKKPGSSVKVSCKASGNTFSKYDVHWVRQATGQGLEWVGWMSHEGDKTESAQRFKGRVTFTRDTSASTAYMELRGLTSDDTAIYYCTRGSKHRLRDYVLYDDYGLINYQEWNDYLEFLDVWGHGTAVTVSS
Sequence of 4980_N08 (PGT-143) (antibody) (VL): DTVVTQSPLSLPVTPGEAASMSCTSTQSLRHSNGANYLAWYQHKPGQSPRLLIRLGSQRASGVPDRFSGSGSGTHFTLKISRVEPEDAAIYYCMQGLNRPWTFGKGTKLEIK
Sequence of 4970_K22 (PGT-144) (antibody) (VH): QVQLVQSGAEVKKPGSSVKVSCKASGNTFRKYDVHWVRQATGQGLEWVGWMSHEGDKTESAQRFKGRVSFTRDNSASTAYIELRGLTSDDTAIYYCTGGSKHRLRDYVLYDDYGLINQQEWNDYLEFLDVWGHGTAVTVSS
Sequence of 4970_K22 (PGT-144) (antibody) (VL): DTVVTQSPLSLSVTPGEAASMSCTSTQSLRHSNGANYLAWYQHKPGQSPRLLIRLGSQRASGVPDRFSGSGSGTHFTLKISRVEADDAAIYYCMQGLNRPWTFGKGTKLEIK
Sequence of 4995_E20 (PGT-142) (antibody) (VH): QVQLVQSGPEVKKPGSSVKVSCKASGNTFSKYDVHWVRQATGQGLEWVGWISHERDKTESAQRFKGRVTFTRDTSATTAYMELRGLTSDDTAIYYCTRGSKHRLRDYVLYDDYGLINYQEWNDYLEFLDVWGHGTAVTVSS
Sequence of 4995_E20 (PGT-142) (antibody) (VL): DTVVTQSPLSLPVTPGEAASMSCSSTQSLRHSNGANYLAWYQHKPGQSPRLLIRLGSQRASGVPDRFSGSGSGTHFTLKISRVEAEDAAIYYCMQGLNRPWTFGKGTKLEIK
Sequence of 4993_K13 (PGT-141) (antibody) (VH): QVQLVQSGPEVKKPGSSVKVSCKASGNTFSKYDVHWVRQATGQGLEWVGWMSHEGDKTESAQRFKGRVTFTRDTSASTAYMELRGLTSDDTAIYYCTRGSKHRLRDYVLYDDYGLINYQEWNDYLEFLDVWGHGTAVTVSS

1496_C09 (PG9) (TCN-109) (antibody)
neutralization IC50 [1]: 0.173 µg/mL | IC50, pseudovirus neutralization [2]: 1.91 µg/mL | IC50 (µg/ml), pseudovirus neutralization [3]: 29.6 µg/mL | IC50 (µg/ml), pseudovirus neutralization [4]: 0.24 µg/mL | IC50 (µg/mL), pseudovirus neutralization [5]: 0.044 µg/mL | IC50, pseudovirus neutralization [6]: 0.59 µg/mL | IC50, pseudovirus neutralization [7]: 6.86 µg/mL | IC50 (µg/mL), pseudovirus neutralization [8]: 10.7 µg/mL | IC50 (µg/ml), pseudovirus neutralization [9]: 0.43 µg/mL | IC50 (µg/ml), pseudovirus neutralization [10]: 5.43 µg/mL | IC50 (µg/ml), pseudovirus neutralization [11]: 6.32 µg/mL | neutralization IC50 [12]: 24.9 µg/mL | IC50 (µg/ml), pseudovirus neutralization [13]: 0.16 µg/mL | IC50 (µg/ml), pseudovirus neutralization [14]: 0.16 µg/mL | IC50 (µg/ml), pseudovirus neutralization [15]: 0.5 µg/mL

4838_L06 (PGT-121) (antibody)
IC50 (ug/mL), pseudovirus neutralization [16]: > 10 µg/mL | IC50, pseudovirus neutralization [17]: > 50 µg/mL | IC50, pseudovirus neutralization [18]: 0.435 µg/mL | IC50, pseudovirus neutralization [19]: 0.006 µg/mL | IC50 (ug/mL), pseudovirus neutralization [20]: > 10 µg/mL

4858_P08 (PGT-123) (antibody)
IC50 (ug/mL), pseudovirus neutralization [16]: 2.49 µg/mL | Fold IC50 increase relative to wild-type (pseudovirus neutralization) [21]: 1.2 fold | Fold IC50 increase relative to wild-type [22]: > 50 fold | IC50 (ug/mL), pseudovirus neutralization [23]: 0.104 µg/mL | IC50, pseudovirus neutralization [17]: > 50 µg/mL | IC50, pseudovirus neutralization [18]: 0.495 µg/mL | IC50, pseudovirus neutralization [19]: 0.004 µg/mL | IC50 (ug/mL), pseudovirus neutralization [20]: > 10 µg/mL

4877_D15 (PGT-122) (antibody)
IC50 (ug/mL), pseudovirus neutralization [16]: > 10 µg/mL | IC50 (ug/mL), pseudovirus neutralization [23]: > 10 µg/mL | IC50, pseudovirus neutralization [17]: > 50 µg/mL | IC50, pseudovirus neutralization [18]: 3.79 µg/mL | IC50, pseudovirus neutralization [19]: 0.012 µg/mL | IC50 (ug/mL), pseudovirus neutralization [20]: > 10 µg/mL

4970_K22 (PGT-144) (antibody)
IC50 (µg/mL), pseudovirus neutralization [24]: > 50 µg/mL | IC50 (µg/mL), single-round pseudovirus neutralization [5]: > 50 µg/mL | IC50, single-round pseudovirus neutralization [25]: 2.58 µg/mL | IC50 (µg/mL), pseudovirus neutralization [26]: > 50 µg/mL | IC50 (µg/mL), pseudovirus neutralization [27]: > 50 µg/mL | IC50 (µg/mL), pseudovirus neutralization [8]: > 50 µg/mL | IC50, pseudovirus neutralization [28]: 9.41 µg/mL

4980_N08 (PGT-143) (antibody)
IC50 (µg/mL), pseudovirus neutralization [24]: > 50 µg/mL | IC50 (µg/mL), single-round pseudovirus neutralization [5]: > 50 µg/mL | IC50, single-round pseudovirus neutralization [25]: 0.103 µg/mL | IC50 (µg/mL), pseudovirus neutralization [26]: > 50 µg/mL | IC50 (µg/mL), pseudovirus neutralization [27]: > 50 µg/mL | IC50 (µg/mL), pseudovirus neutralization [8]: 2.97 µg/mL | IC50, pseudovirus neutralization [28]: 0.395 µg/mL

4993_K13 (PGT-141) (antibody)
IC50 (µg/mL), pseudovirus neutralization [24]: > 50 µg/mL | IC50 (µg/mL), single-round pseudovirus neutralization [5]: > 50 µg/mL | IC50, single-round pseudovirus neutralization [25]: 0.381 µg/mL | IC50 (µg/mL), pseudovirus neutralization [26]: > 50 µg/mL | IC50 (µg/mL), pseudovirus neutralization [27]: > 50 µg/mL | IC50 (µg/mL), pseudovirus neutralization [8]: 1.89 µg/mL | IC50, pseudovirus neutralization [28]: 0.586 µg/mL

4995_E20 (PGT-142) (antibody)
IC50 (µg/mL), pseudovirus neutralization [24]: > 50 µg/mL | IC50 (µg/mL), single-round pseudovirus neutralization [5]: > 50 µg/mL | IC50, single-round pseudovirus neutralization [25]: 0.086 µg/mL | IC50 (µg/mL), pseudovirus neutralization [26]: > 50 µg/mL | IC50 (µg/mL), pseudovirus neutralization [27]: > 50 µg/mL | IC50 (µg/mL), pseudovirus neutralization [8]: 2.81 µg/mL | IC50, pseudovirus neutralization [28]: 0.172 µg/mL

4995_P16 (PGT-145) (antibody)
IC50 (µg/mL), pseudovirus neutralization [24]: 20.1 µg/mL | IC50 (µg/mL), single-round pseudovirus neutralization [5]: 0.552 µg/mL | IC50, single-round pseudovirus neutralization [25]: 0.492 µg/mL | IC50 (µg/mL), pseudovirus neutralization [26]: 0.56 µg/mL | IC50 (µg/mL), pseudovirus neutralization [27]: 10.9 µg/mL | IC50 (µg/mL), pseudovirus neutralization [8]: 0.982 µg/mL | IC50, pseudovirus neutralization [28]: 0.023 µg/mL

5114_A19 (PGT-128) (antibody)
IC50 (µg/mL), pseudovirus neutralization [29]: > 50 µg/mL | IC50 (µg/mL), pseudovirus neutralization [30]: > 50 µg/mL | IC50, pseudovirus neutralization [31]: 0.025 µg/mL | IC50, pseudovirus neutralization [32]: 0.044 µg/mL | IC50 (µg/mL), pseudovirus neutralization [33]: > 50 µg/mL | IC50 (µg/mL), pseudovirus neutralization [34]: > 50 µg/mL | IC50 (µg/mL), pseudovirus neutralization [35]: 24.9 µg/mL | IC50 (µg/mL), pseudovirus neutralization [36]: 0.007 µg/mL | IC50 (µg/mL), pseudovirus neutralization [37]: > 50 µg/mL | IC50 (µg/mL), pseudovirus neutralization [38]: 16.7 µg/mL | IC50 (µg/mL), pseudovirus neutralization [39]: 11.7 µg/mL | Fold IC50 increase relative to wild-type [40]: 10.7 fold | Fold IC50 increase relative to wild-type (pseudovirus neutralization) [21]: 0.9 fold

Source: patent US20240132578A1
